This is an account of results in patent publication US20220372168A1.

In the assay the target is human FGFR1c/KLB receptor complex on cells (human) (UniProt P11362). Briefly: cell-based or functional assay.

By EC50 is commonly meant the concentration that produces a half-maximal response.

Chain of human FGFR1c/KLB receptor complex on cells (human) (P11362 other isoform, or with tags, fused parts or gaps limits assumed, chain 1 of 2): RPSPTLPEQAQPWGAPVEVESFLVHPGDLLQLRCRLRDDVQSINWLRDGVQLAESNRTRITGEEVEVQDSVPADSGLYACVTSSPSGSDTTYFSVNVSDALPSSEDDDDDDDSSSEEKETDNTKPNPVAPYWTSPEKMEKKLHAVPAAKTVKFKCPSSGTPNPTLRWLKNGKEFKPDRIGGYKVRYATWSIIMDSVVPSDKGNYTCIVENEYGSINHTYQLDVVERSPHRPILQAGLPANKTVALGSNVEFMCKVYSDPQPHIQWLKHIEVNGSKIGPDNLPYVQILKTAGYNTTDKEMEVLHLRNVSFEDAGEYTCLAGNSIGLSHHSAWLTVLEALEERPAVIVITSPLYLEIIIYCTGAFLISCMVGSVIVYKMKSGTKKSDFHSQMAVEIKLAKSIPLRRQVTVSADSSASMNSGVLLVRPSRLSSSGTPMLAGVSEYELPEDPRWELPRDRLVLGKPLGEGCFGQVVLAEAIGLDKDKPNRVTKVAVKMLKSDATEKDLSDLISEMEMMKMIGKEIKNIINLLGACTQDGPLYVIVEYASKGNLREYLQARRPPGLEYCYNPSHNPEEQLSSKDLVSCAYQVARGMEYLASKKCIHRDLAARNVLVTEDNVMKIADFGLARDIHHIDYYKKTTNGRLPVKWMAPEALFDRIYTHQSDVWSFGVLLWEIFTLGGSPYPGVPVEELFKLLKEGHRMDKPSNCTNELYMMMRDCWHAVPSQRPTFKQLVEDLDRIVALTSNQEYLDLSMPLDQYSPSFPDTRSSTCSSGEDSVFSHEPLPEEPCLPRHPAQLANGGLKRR
Chain of human FGFR1c/KLB receptor complex on cells (human) (chain, as listed by the source limits assumed, chain 2 of 2): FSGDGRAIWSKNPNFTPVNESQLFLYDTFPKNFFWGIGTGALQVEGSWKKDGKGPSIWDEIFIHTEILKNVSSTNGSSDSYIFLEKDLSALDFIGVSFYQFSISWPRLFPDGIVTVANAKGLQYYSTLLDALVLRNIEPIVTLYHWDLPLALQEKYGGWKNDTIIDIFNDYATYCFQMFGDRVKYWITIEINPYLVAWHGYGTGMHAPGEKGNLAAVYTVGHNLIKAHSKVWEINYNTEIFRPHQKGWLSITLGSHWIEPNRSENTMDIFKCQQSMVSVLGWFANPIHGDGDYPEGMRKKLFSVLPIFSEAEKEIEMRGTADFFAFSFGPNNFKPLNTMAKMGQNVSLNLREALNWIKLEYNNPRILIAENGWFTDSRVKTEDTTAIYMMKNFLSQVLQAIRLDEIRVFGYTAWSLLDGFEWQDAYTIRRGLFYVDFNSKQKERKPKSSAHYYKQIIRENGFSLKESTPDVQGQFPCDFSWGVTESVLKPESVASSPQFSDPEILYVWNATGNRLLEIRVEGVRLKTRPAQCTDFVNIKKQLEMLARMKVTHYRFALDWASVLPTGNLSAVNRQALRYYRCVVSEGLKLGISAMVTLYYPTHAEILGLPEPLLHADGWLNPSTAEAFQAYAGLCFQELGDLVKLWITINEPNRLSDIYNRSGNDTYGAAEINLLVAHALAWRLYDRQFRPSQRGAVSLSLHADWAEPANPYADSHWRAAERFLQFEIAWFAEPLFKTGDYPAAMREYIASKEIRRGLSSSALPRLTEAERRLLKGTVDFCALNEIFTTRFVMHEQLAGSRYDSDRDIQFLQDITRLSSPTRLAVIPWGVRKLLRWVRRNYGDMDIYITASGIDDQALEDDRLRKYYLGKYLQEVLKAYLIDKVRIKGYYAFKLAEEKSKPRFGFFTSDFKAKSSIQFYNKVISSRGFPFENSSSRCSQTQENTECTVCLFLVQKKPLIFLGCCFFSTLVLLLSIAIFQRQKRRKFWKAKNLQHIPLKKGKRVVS

As to “REGN1438 (6His-FGF21) (from UniProt Q9NSA1 29-209) (ligand)”, the % Act was 100%, the EC50 amounted to 2.9 nM and the Percent Activity % is 100%.
